The assay deals with T1, purified human SAP30 protein (GST removed) (human), O75446.
T1 chain: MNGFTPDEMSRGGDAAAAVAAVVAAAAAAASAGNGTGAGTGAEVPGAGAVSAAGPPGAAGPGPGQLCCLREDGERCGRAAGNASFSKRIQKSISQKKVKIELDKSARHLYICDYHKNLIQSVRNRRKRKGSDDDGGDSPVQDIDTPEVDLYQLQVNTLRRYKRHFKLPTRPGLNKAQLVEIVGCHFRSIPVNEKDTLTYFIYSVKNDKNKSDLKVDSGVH
Description: SDS-PAGE under non-reducing conditions; purified SAP30 (GST removed) treated with or without β-mercaptoethanol and boiling; Coomassie staining and immunoblot. Conditions: remark: other sources report otherwise. (In general: In western blotting, separated proteins are transferred to a membrane and probed.)

The values that follow come from publication PMC10471174.

B1: purified human SAP30 protein (GST removed), O75446 1-220 (natural protein)
chain: T1 chain
With B1, the stoichiometry N came out at 2.

For orientation: stoichiometry N means a count of units in the complex or per binding partner.
